Consider two molecules from publication doi:10.1101/2024.03.21.586168 (bioRxiv, 2024).

What is called Kd is the constant that tells how readily two partners part at equilibrium.

Experiment [1] concerns the target recombinant CD135 (Flt3) (UniProt Q00342). The experiment can be described thus: ELISA. A general note: An ELISA detects its analyte on a solid surface through an enzyme-linked reagent.
The target of experiment [2] is T1, recombinant CD135 (Flt3) (UniProt Q00342 28-544).
T1 sequence (looked up): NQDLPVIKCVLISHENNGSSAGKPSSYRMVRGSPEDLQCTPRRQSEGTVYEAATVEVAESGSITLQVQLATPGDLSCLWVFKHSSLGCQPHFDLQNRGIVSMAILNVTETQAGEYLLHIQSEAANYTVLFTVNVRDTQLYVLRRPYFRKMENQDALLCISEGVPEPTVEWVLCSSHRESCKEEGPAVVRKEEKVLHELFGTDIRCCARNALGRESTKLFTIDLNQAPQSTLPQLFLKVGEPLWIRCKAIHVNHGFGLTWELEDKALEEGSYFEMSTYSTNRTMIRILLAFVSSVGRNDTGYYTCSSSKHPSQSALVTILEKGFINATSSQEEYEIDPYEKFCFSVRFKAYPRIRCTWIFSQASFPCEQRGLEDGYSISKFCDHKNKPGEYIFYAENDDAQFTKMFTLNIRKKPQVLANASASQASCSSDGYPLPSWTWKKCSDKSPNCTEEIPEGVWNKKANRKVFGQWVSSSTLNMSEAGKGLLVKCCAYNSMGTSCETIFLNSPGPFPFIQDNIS
The experiment can be described thus: ELISA.

For the molecule “Flt3L-SA (murine Flt3L fused at its C terminus to murine serum albumin through a (G4S)2 linker)”, the Kd with recombinant CD135 (Flt3) [1] worked out at 0.16 nM.

B1: native, soluble murine Flt3L (WT) (ligand, mouse, UniProt P49772 27-189, looked up)
chain: GTPDCYFSHSPISSNFKVKFRELTDHLLKDYPVTVAVNLQDEKHCKALWSLFLAQRWIEQLKTVAGSKMQTLLEDVNTEIHFVTSCTFQPLPECLRFVQTNISHLLKDTCTQLLALKPCIGKACQNFSRCLEVQCQPDSSTLLPPRSPIALEATELPEPRPRQ
Consider B1, for which the dissociation constant Kd with recombinant CD135 (Flt3) [2] was determined as 0.16 nM.
